Source: ChEMBL document CHEMBL1137932, “Synthesis of S-alkyl L-homocysteine analogues of glutathione and their kinetic studies with gamma-glutamyl transpeptidase” (Bioorg Med Chem Lett, 2004)

Columns and labels:
[1] = tested on: NC(CC[S+]([O-])CCC(=O)NCC(=O)O)C(=O)O; test: (§1) Michaelis-Menten constant for Gamma-glutamyltranspeptidase in rat kidney
[2] = tested on: N[C@@H](CCS(=O)(=O)CCC(=O)NCC(=O)O)C(=O)O; test: as §1

Chain of Glutathione hydrolase 1 proenzyme (Rattus norvegicus), P07314 (P07314 whole entry): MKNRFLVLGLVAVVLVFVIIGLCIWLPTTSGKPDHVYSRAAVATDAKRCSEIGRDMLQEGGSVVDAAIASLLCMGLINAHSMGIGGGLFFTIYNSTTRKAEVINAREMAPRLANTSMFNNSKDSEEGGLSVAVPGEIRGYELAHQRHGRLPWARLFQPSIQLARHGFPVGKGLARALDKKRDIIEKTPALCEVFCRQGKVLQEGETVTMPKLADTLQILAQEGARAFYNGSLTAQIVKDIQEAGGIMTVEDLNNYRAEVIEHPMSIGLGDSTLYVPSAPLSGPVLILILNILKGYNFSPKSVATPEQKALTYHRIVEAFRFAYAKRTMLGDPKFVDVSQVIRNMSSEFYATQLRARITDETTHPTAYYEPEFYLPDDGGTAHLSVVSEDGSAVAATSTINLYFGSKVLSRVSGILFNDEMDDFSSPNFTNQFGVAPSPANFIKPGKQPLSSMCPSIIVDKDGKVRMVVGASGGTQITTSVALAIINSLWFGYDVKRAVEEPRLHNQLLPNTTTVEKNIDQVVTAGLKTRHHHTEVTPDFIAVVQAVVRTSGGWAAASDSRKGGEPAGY

Glutathione hydrolase 1 proenzyme (Rattus norvegicus), P07314
Km [1]: 500 µM | Km [2]: 590 µM
